According to publication PMC9670026:

Legend:
[1] = molecular target: Protein A (UniProt P38507); experiment: LSPR (localized surface plasmon resonance) biosensor; Protein A immobilised by EDC/NHS on the gold-nanostructure sensor chip; IgG 0.45 mg/mL in running buffer, 1 mL injected at 1 mL/min, one injection (n = 1); running buffer 10 mM citrate, 150 mM NaCl, pH 3.8; room temperature; Langmuir 1:1 fit; apparent affinity
[2] = molecular target: Protein A (UniProt P38507); experiment: LSPR (localized surface plasmon resonance) biosensor; Protein A immobilised by EDC/NHS on the gold-nanostructure sensor chip; IgG 0.45 mg/mL in running buffer, 1 mL injected at 1 mL/min, one injection (n = 1); running buffer PBS pH 7.4; room temperature; Langmuir 1:1 fit; apparent affinity
[3] = molecular target: Protein A (UniProt P38507); experiment: LSPR (localized surface plasmon resonance) biosensor; Protein A immobilised by EDC/NHS on the gold-nanostructure sensor chip; IgG 0.45 mg/mL in running buffer, 1 mL injected at 1 mL/min, one injection (n = 1); running buffer 10 mM citrate, 150 mM NaCl, pH 3.5; room temperature; Langmuir 1:1 fit; apparent affinity
[4] = molecular target: Protein A (UniProt P38507); experiment: LSPR (localized surface plasmon resonance) biosensor; Protein A immobilised by EDC/NHS on the gold-nanostructure sensor chip; IgG 0.45 mg/mL in running buffer, 1 mL injected at 1 mL/min, one injection (n = 1); running buffer 10 mM citrate, 150 mM NaCl, pH 4.0; room temperature; Langmuir 1:1 fit; apparent affinity
[5] = molecular target: Human IgG1, monomer fraction (human); experiment: SEC-MALS; SEC-MALS-RI-UV on Superdex 200 Increase 10/300 GL, 1 mL/min, 100 uL injected, room temperature; 0.45 mg/mL total IgG; aggregate fraction of the IgG1 batch
[6] = molecular target: Human IgG1 monoclonal antibody, aggregate fraction (mainly dimers) (UniProt P01857); experiment: LSPR (localized surface plasmon resonance) fiber-optical nanoplasmonic biosensor, ArgusEye AB; conditions: room temperature under ambient conditions, pH 7.4: 140 mM sodium chloride, 2.7 mM potassium chloride, 10 mM phosphate, pH 4.0, 3.8 and 3.5: 150 mM NaCl with 10 mM citrate, pH 7.4: PBS (10 mM phosphate), pH 4.0, 3.8 and 3.5: 10 mM citrate (Methods and Results text). The Figure 3 caption state
[7] = molecular target: Human IgG1 monoclonal antibody, monomer fraction (UniProt P01857); experiment: as above; conditions: room temperature under ambient conditions, pH 7.4: 140 mM sodium chloride, 2.7 mM potassium chloride, 10 mM phosphate, pH 4.0, 3.8 and 3.5: 150 mM NaCl with 10 mM citrate, pH 7.4: PBS (10 mM phosphate), pH 4.0, 3.8 and 3.5: 10 mM citrate (Methods and Results text). The Figure 3 caption state

Row | Substance | Kd [1] [nM] | koff [1] [s⁻¹] | kon [1] [M⁻¹ s⁻¹] | Kd [2] [nM] | koff [2] [s⁻¹] | kon [2] [M⁻¹ s⁻¹] | Kd [3] [nM] | koff [3] [s⁻¹] | kon [3] [M⁻¹ s⁻¹] | Kd [4] [nM] | koff [4] [s⁻¹] | kon [4] [M⁻¹ s⁻¹] | also measured
1 | Human IgG1, aggregate fraction (antibody) | 65 | 0.0024 | 36000 | 1.2 | 2.9e-05 | 25000 | 350 | 0.0099 | 28000 | 26 | 0.00092 | 36000 | 
2 | Human IgG1, monomer fraction (antibody) | 330 | 0.01 | 30000 | 1.3 | 2.9e-05 | 22000 | 660 | 0.011 | 17000 | 130 | 0.004 | 31000 | stoichiometry N [5]: 2
3 | Protein A (staphylococcal protein A, SpA) |  |  |  |  |  |  |  |  |  |  |  |  | koff ([6]; pH 3.5): 0.0099 s⁻¹; kon ([6]; pH 3.5): 28000 M⁻¹ s⁻¹; koff ([6]; pH 3.8): 0.0024 s⁻¹; kon ([6]; pH 3.8): 36000 M⁻¹ s⁻¹; koff ([6]; pH 4.0): 0.00092 s⁻¹; kon ([6]; pH 4.0): 36000 M⁻¹ s⁻¹; koff ([6]; pH 7.4): 2.9e-05 s⁻¹; kon ([6]; pH 7.4): 25000 M⁻¹ s⁻¹; koff ([7]; pH 3.5): 0.011 s⁻¹; kon ([7]; pH 3.5): 17000 M⁻¹ s⁻¹; koff ([7]; pH 3.8): 0.01 s⁻¹; kon ([7]; pH 3.8): 30000 M⁻¹ s⁻¹; koff ([7]; pH 4.0): 0.004 s⁻¹; kon ([7]; pH 4.0): 31000 M⁻¹ s⁻¹; koff ([7]; pH 7.4): 2.9e-05 s⁻¹; kon ([7]; pH 7.4): 22000 M⁻¹ s⁻¹
